The assay addresses cotinine-conjugated anti-HER2 affibody (ZQAA1-Cot). Description: ELISA, ZQAA1-Cot (2 ug/mL) captured on coated hHER2-ECD-His, anti-hIgG-Fc-HRP, absorbance at 450 nm.

B1: humanized antibody (hz33B2) specifically binding to cotinine (antibody, V domains shown)
VH: QVQLVQSGAEVKKPGASVKVSCKASGYTFTSYWIQWVRQAPGQGLEWMGEIFPGTGTTYYNEKFKGRVTMTIDTSTSTVYMELSSLRSEDTAVYYCARGGYYYDSRAWFAYWGQGTLVTVSS
VL: QAVVTQEPSLTVSPGGTVTLTCRSSTGTVTTSNYANWVQQKPGQAPRGLIGGTNNRAPWTPARFSGSLLGDKAALTLSGAQPEDEAEYYCALWFSNHWVFGGGTKLTVLG
B1 showed a 50% effective concentration (EC50 (read off the curve)) of 60 ng/mL.

These data come from US20250188195A1.
